Experimental data reported in patent publication US11021532 (CENTIVAX, dated 2021).
Changes are numbered by the printed parent chain.

B1: COVID19_P24_D08 (scFv, V domains shown)
VH: QVQLVQSGAEVKKPGASVKVSCKASGYTFTSYDINWVRQAPGQGLEWMGIIDPSGGSTSYAQKFQGRVTMTRDTSTSTVYMELSSLRSEDTAVYYCATVTPGYGMDVWGQGTTVTVSS
VL: DIQMTQSPSSLSASVGDRVTITCRASQTIYSYLNWYQQKPGKAPKLLIYDASNLETGVPSRFSGSGSGTDFTLTISSLQPEDFATYYCQQAISFPLTFGGGTKLEIKR
B2: COVID19_P24_G06 (scFv, V domains shown)
VH: QVQLVQSGAEVKKPGASVKVSCKASGYTFTNYGISWVRQAPGQGLEWMGWISARNGNTNYAQKFQGRVTMTRDTSTSTVYMELSSLRSEDTAVYYCTTDPVLEWFGYSIWGQGTMVTVSS
VL: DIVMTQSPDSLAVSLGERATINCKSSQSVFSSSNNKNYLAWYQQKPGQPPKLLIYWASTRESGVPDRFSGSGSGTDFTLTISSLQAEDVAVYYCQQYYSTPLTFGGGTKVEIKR
B3: COVID19_P24_C01 (scFv, V domains shown)
VH: QVQLVQSGAEVKKPGASVKVSCKASGYTFTRYYIHWVRQAPGQGLEWMGIINPSGGSTTYAQKFQGRVTMTRDTSTSTVYMELSSLRSEDTAVYYCAKGAPHDYIWGSYRPDAFDIWGQGTMVTVSS
VL: DIQMTQSPSSLSASVGDRVTITCRASENIDSWLAWYQQKPGKAPKLLIYEASTLESGVPSRFSGSGSGTDFTLTISSLQPEDFATYYCHQYLSSPETFGQGTKVEIKR
B4: COVID19_P23_G11 (scFv, V domains shown)
VH: QVQLVQSGAEVKKPGASVKVSCKASGGTFRSTAISWVRQAPGQGLEWMGWMNPNSGNTGYAQKFQGRVTMTRDTSTSTVYMELSSLRSEDTAVYYCARAGYSSSSGYYYYGMDVWGKGTTVTVSS
VL: DIQMTQSPSSLSASVGDRVTITCRASQGISNNLNWYQQKPGKAPKLLIYAASSLQSGVPSRFSGSGSGTDFTLTISSLQPEDFATYYCQQYDTFPLTFGQGTKVEIKR
B5: COVID19_P23_G12 (scFv, V domains shown)
VH: QVQLVQSGAEVKKPGASVKVSCKASGYIFTSYPIHWVRQAPGQGLEWMGWMNPNSGNTGYAQKFQGRVTMTRDTSTSTVYMELSSLRSEDTAVYYCARDRGSYDTDAFDIWGQGTMVTVSS
VL: B4 VL with G28D, N32Y, S53N, Y91A, D92N, T93S, L96S, V104L

What was measured:
[1] = molecular target: SARS CoV-2 spike protein on pseudovirus (SARS-CoV-2, UniProt P0DTC2 14-1273); assay: cell-based or functional assay
[2] = molecular target: T1, SARS-CoV-2 Receptor Binding Domain (RBD) protein (SARS-CoV-2); assay: SPR (Carterra LSA), scFv captured via anti-V5, RBD as analyte
[3] = molecular target: T1, SARS-CoV-2 Receptor Binding Domain …; assay: SPR (Carterra LSA), scFv captured via anti-V5, RBD as analyte, 1:1 fit

Row | Binder | IC50 [µg/mL] pseudotyped lenti neut [1] [µg/mL] | Kd [2] [nM] | Kd [3] [nM]
1 | B1 | 17 |  | 
2 | B2 | 0.16 |  | 
3 | B3 | 0.92 |  | 
4 | B4 | 0.26 |  | 
5 | B5 | 15.9 | < 50 | 0.37
